The record followed here is patent US20140303084A1 (Biogen, published 2014).

Sequences and labels used below:
B1: SKQGRPISPDRRAAGKLTCLASYCWLFGSGISLSRAPESAAP (peptide)
peptide: SKQGRPISPDRRAAGKLTCLASYCWLFGSGISLSRAPESAAP
B2: RRAPGKLTCLASYCWLF WAVIA PPKVKGTRQS (peptide)
peptide: RRAPGKLTCLASYCWLFWAVIAPPKVKGTRQS
B3: RRAPGKLTCLASYCWLF WAGIA PHRPLKERVR (peptide)
peptide: RRAPGKLTCLASYCWLFWAGIAPHRPLKERVR
B4: SKQGRPISPDrRAAGKLTCLAS-NMeTyr-CWLFWTGIA (peptide)
peptide: SKQGRPISPD[dR]RAAGKLTCLAS[NMeY]CWLFWTGIA
modifications: not fully specified; cysteine pairing not given here
B5: SKQGRPISSDrRAAGKLTCLASYCWLFWTGIA (peptide)
peptide: SKQGRPISSD[dR]RAAGKLTCLASYCWLFWTGIA
modifications: not fully specified; printed as SKQGRPISSDrRAAGKLTCLASYCWLFWTGIA; cysteine pairing not given here
B6: RRAPGCLTALASYCWLFWTGIA-CONH2 (peptide)
peptide: RRAPGCLTALASYCWLFWTGIA-NH2
modifications: cysteine pairing not given here
B7: RRAPGKLTCLASYAWLCWTGIA-COOH (peptide)
peptide: RRAPGKLTCLASYAWLCWTGIA-OH
modifications: cysteine pairing not given here
B8: RRAPGKLTCLASYAWCFWTGIA-COOH (peptide)
peptide: RRAPGKLTCLASYAWCFWTGIA-OH
modifications: cysteine pairing not given here
B9: RRAPGKLTCLASYCWLF WTAVG GQPYMLLAWR (peptide)
peptide: RRAPGKLTCLASYCWLFWTAVGGQPYMLLAWR
B10: RRAPGCLTALASYAWLCWTGIA-COOH (peptide)
peptide: RRAPGCLTALASYAWLCWTGIA-OH
modifications: cysteine pairing not given here
B11: RRAPGKCTALASYAWCFWTGIA-COOH (peptide)
peptide: RRAPGKCTALASYAWCFWTGIA-OH
modifications: cysteine pairing not given here
B12: RRAPGKLTCLASYCWLF WTGLL DYPTPQSHEP (peptide)
peptide: RRAPGKLTCLASYCWLFWTGLLDYPTPQSHEP
B13: RRAPGKLTCLASYCWLF LTGWA RVPLPPRPHP (peptide)
peptide: RRAPGKLTCLASYCWLFLTGWARVPLPPRPHP
B14: RPRSSAHDRP RRAAG KLTCLASYCWLFWTGIA (peptide)
peptide: RPRSSAHDRPRRAAGKLTCLASYCWLFWTGIA
B15: RRAPGKLTCLASYCWLF WSGIA PQPPNMRPSV (peptide)
peptide: RRAPGKLTCLASYCWLFWSGIAPQPPNMRPSV
B16: SKQGRPISSDrRASGKLTCLASYCWLFWTGIA (peptide)
peptide: SKQGRPISSD[dR]RASGKLTCLASYCWLFWTGIA
modifications: not fully specified; printed as SKQGRPISSDrRASGKLTCLASYCWLFWTGIA; cysteine pairing not given here
B17: RRAPGKLTCLASYCWLF VTGTA HAPRVAPAPA (peptide)
peptide: RRAPGKLTCLASYCWLFVTGTAHAPRVAPAPA
B18: PRTTANRRSS RRAPA KLTCLASYCWLFWTGIA (peptide)
peptide: PRTTANRRSSRRAPAKLTCLASYCWLFWTGIA
B19: SKQGRPISSDrRAAGKSTCLASYCWLFWTGIA (peptide)
peptide: SKQGRPISSD[dR]RAAGKSTCLASYCWLFWTGIA
modifications: not fully specified; printed as SKQGRPISSDrRAAGKSTCLASYCWLFWTGIA; cysteine pairing not given here
B20: RRAPGKLTCLASYCWLF ATGVT FPQIWAIPSP (peptide)
peptide: RRAPGKLTCLASYCWLFATGVTFPQIWAIPSP
B21: SLISMTNPSG RRVPG KLTCLASYCWLFWTGIA (peptide)
peptide: SLISMTNPSGRRVPGKLTCLASYCWLFWTGIA
B22: RRAPGKLTCLASYAWLCWTGIA-CONH2 (peptide)
peptide: RRAPGKLTCLASYAWLCWTGIA-NH2
modifications: cysteine pairing not given here
B23: RRAPGKLCALASYACLFWTGIA-COOH (peptide)
peptide: RRAPGKLCALASYACLFWTGIA-OH
modifications: cysteine pairing not given here
B24: RRAPGKLCALASYCWLFWTGIA-CONH2 (peptide)
peptide: RRAPGKLCALASYCWLFWTGIA-NH2
modifications: cysteine pairing not given here
B25: PARGKERELM RRAPG KLTCLASYCWLFWTGIA (peptide)
peptide: PARGKERELMRRAPGKLTCLASYCWLFWTGIA
B26: RRAPGKLTCLASYCWLF WTTYA SYATKPADTT (peptide)
peptide: RRAPGKLTCLASYCWLFWTTYASYATKPADTT
B27: RRAPGKLCALASYCWLFWTGIA-COOH (peptide)
peptide: RRAPGKLCALASYCWLFWTGIA-OH
modifications: cysteine pairing not given here
B28: compound C (peptide)
peptide: LYTAWIKCQFARLPGCALSGRW-NH2
modifications: cysteine pairing not given here
B29: PNLLRVRTSE VRNPG KLTCLASYCWLFWTGIA (peptide)
peptide: PNLLRVRTSEVRNPGKLTCLASYCWLFWTGIA
B30: RRAPGKLTCLASYCWLF YTGIA HGHPMEHRKS (peptide)
peptide: RRAPGKLTCLASYCWLFYTGIAHGHPMEHRKS
B31: RRAPGKLTCLASYCWLF WTGIA RWPSHRSGPS (peptide)
peptide: RRAPGKLTCLASYCWLFWTGIARWPSHRSGPS
modifications: not fully specified (C-terminus); cysteine pairing not given here
B32: RRAPGKLTCLASYCWLF WTTWT TAPTTPPLTT (peptide)
peptide: RRAPGKLTCLASYCWLFWTTWTTAPTTPPLTT
B33: SKQGRPISPDrRAAGKLTCLASYCW-NMeLeu-FWTGIA (peptide)
peptide: SKQGRPISPD[dR]RAAGKLTCLASYCW[NMeL]FWTGIA
modifications: not fully specified; cysteine pairing not given here
B34: RRAPGKCTALASYAWCFWTGIA-CONH2 (peptide)
peptide: RRAPGKCTALASYAWCFWTGIA-NH2
modifications: cysteine pairing not given here
B35: GRAMAAEPWP RQAPG KLTCLASYCWLFWTGIA (peptide)
peptide: GRAMAAEPWPRQAPGKLTCLASYCWLFWTGIA
B36: RRAPGKLTCLASYAWCFWTGIA-CONH2 (peptide)
peptide: RRAPGKLTCLASYAWCFWTGIA-NH2
modifications: cysteine pairing not given here
B37: RRAPGKLTCLASYACLFWTGIA-CONH2 (peptide)
peptide: RRAPGKLTCLASYACLFWTGIA-NH2
modifications: cysteine pairing not given here
B38: RRAPGCLTALASYCWLFWTGIA-COOH (peptide)
peptide: RRAPGCLTALASYCWLFWTGIA-OH
modifications: cysteine pairing not given here
B39: TALSRGLVTM RTAPD KLTCLASYCWLFWTGIA (peptide)
peptide: TALSRGLVTMRTAPDKLTCLASYCWLFWTGIA
B40: NGALGFRSVV PRAAG KLTCLASYCWLFWTGIA (peptide)
peptide: NGALGFRSVVPRAAGKLTCLASYCWLFWTGIA
B41: AQWVGRGQWA IRAPG KLTCLASYCWLFWTGIA (peptide)
peptide: AQWVGRGQWAIRAPGKLTCLASYCWLFWTGIA
B42: PQTRDPSSRD RRAPG KLTCLASYCWLFWTGIA (peptide)
peptide: PQTRDPSSRDRRAPGKLTCLASYCWLFWTGIA
B43: RRAPGKLCALASYACLFWTGIA-CONH2 (peptide)
peptide: RRAPGKLCALASYACLFWTGIA-NH2
modifications: cysteine pairing not given here
B44: SKQGRPISSDrRASGKSTCLASYCWLFWTGIA (peptide)
peptide: SKQGRPISSD[dR]RASGKSTCLASYCWLFWTGIA
modifications: not fully specified; printed as SKQGRPISSDrRASGKSTCLASYCWLFWTGIA; cysteine pairing not given here
B45: RRAPGKCTALASYCWLFWTGIA-CONH2 (peptide)
peptide: RRAPGKCTALASYCWLFWTGIA-NH2
modifications: cysteine pairing not given here
B46: RRAPGKCTALASYCWLFWTGIA-COOH (peptide)
peptide: RRAPGKCTALASYCWLFWTGIA-OH
modifications: cysteine pairing not given here

Square brackets hold non-standard residues; d marks the D form. Ends that are not written are not given here. NMeY = CN[C@@H](Cc1ccc(O)cc1)C(=O)O; NMeL = CN[C@@H](CC(C)C)C(=O)O

This test has as its target human Factor IXa (human, UniProt P00740 47-191; P00740 227-461). Description: cell-based or functional assay.
Regarding B1, the “EC50 [µM], FXa generation assay” value is above 10 µM.
In the case of B2, the “EC50 [µM], FXa generation assay” value was above 1 µM.
On the same count and under the same terms, the result for B3 reads above 1 µM; that for B4, above 10 µM; that for B5, below 0.5 µM.
The same measure, in the same setting: with B6 the figure was above 1 µM; with B7, above 10 µM; with B8, above 1 µM.
Turning to B9, the “EC50 [µM], FXa generation assay” value was below 0.5 µM.
For the molecule B10, the “EC50 [µM], FXa generation assay” value is above 20 µM.
Same read-out and setting: the result for B11 reads above 1 µM.
Same read-out and setting: with B12 the figure was below 0.5 µM; with B13, above 1 µM.
Still for that read-out and setting: the result for B14 reads above 1 µM; that for B15, below 0.5 µM; that for B16, below 0.5 µM.
Consider B17, for which the “EC50 [µM], FXa generation assay” value was above 1 µM.
Still for that read-out and setting: with B18 the figure was below 0.5 µM.
Still for that read-out and setting: with B19 the figure was below 0.5 µM; with B20, above 1 µM.
As to B21, the “EC50 [µM], FXa generation assay” value is below 0.5 µM.
With B22, the “EC50 [µM], FXa generation assay” value was above 10 µM.
Still for that read-out and setting: the result for B23 reads above 10 µM; that for B24, above 1 µM; that for B25, above 1 µM.
Turning to B26, the “EC50 [µM], FXa generation assay” value is below 0.5 µM.
As for B27, the “EC50 [µM], FXa generation assay” value was above 1 µM.
As to B28, the “EC50 [µM], FXa generation assay with hFIXa” value was above 25 µM.
As to B29, the “EC50 [µM], FXa generation assay” value is below 0.5 µM.
Same read-out and setting: with B30 the figure was above 1 µM.
The same measure, in the same setting: with B31 the figure was above 1 µM; with B32, below 0.5 µM; with B33, above 10 µM.
On the same count and under the same terms, the result for B34 reads above 1 µM; that for B35, below 0.5 µM.
In the case of B36, the “EC50 [µM], FXa generation assay” value is above 20 µM.
Still for that read-out and setting: with B37 the figure was above 1 µM; with B38, above 1 µM.
Still for that read-out and setting: with B39 the figure was below 0.5 µM; with B40, below 0.5 µM; with B41, above 1 µM.
The same measure, in the same setting: the result for B42 reads below 0.5 µM; that for B43, above 10 µM.
Regarding B44, the “EC50 [µM], FXa generation assay” value was below 0.5 µM.
Same read-out and setting: the result for B45 reads above 1 µM; that for B46, above 1 µM.
